Laboratory results as given in the supplement of paper PMC12455559.

Assay: purified protein yield per well (BCA); higher = higher soluble expression
Method in brief: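 Each candidate enzyme was grown in E. coli C41(DE3) in a 2 mL autoinduction culture (100 µg/mL kanamycin; 2 h at 37 °C, then 40 h at 18 °C) and purified robotically via Ni-charged magnetic beads with SUMO protease cleavage. Purified protein yield per well was assessed using the Pierce Rapid Gold BCA kit. Readings below 25 ug (0.1 mg/mL) are beneath the detection threshold.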

Sequence	purified protein yield per well
MIYYPTDTSQGTFGAIAISPGYTALFSVELAWMGPRLASQGFVVIGIETNDRNDFDTARGTQLLAALDYLTGQSSVRSRVDPNRLAVAGHSMGGGGAFSAALRRPALKAAVGFTPFSPSQNLTNMQVPALLYSGQYDTVTTPSSVSNLYNGLPSTTEGAYIEAAGLDHSFPTRPNTLLMRTMIPWVKIFLDNDLRYTQFLCPLMDSSGVLQYRNTCPLVPPGLPSPSPTTAPPTTAPPTTAPPTTAPPTTAPPTTAPPTTAPPTTAPPSGACTATYQTIGSWPGGFQGEVTVRAGNSAINGWTVGWSLGSGQSITQIWNGTLSTSGSSVSVRNVSYNGSLPAAGTATFGFLGSGSPSTPSTVTCTSP [ESM001]	< 25 µg
MKSSGSAFRDPSGTVPTGRPAGRSWRYALALVAATTTLVALTVAGGTQQATGADNPYQRGPDPTRASVSANRGTFATAQVSVPAGNGFGGGVIYYPTDTSQGRFGAIAVVPGYTATWAAEGAWMGHWLASFGFVVIGIDTNSRNDWDNARGTQLLAALDYLTQRSSVRDRVDASRTSVMGHSMGGGGAANASLQRPTLKTAIGLAPASFSQNLTTTKVPTMLLAGQYDGTVTPSSVLNLYNGIPAGVEKAYLELTGAGHGFPTSNNPTMMRTIIPWFKIFVDSDTRYTQFLCPLADTNGIRTYQSTCPLVPSTPPTSTSTTTTTTGVPTGSTYVGQQSGRCLDVTGQSQTNGAKAQLWDCNGQSNQKWTLTSAAELRVYGGKCLDLPSNSAAGTQAQIWDCNGQSNQKWTHGTDGSIRHTQTGLCLDANGQGTANGTQVNSWNCNGQTNQKWTRR [TEP008]	< 25 µg
MLRVTHHPPPGGTDSARTRTALPAPGAAPPRPGLPRRRGRLVTLAAAGIAAALVGLFTMTVATGTASAADNPYQRGPDPTRSSVASVNGPFANTSVAVPTGYGFNGGRIYYPTDTSQGTFGAVAISPGYNALFSAELAWMGPWLASHGFVVIGIETNSRNDFDTARGTQLLAALDYLVQQSPVRDRIDPNRLAVSGHSMGGGGALSAALRRSSLKAAVGIAPYSPSSNLANDRVPTMVFAGQADTVVTPSYATGLYNSLPVTTESAYLEVAGADHGFMVGRSNPVLIRTMLPFLKMFVDNDARYSQFLCPLADNNGVVSYRSTCPLLPSTPTTPPPTPSDTPPPTPSQTPTSSPTGNPPGTASLIVGAQSNRCLDVPNASRANGTRVQLWDCNRQANQSWTYTSGKQLRVYGDMCLDAAGSGNGAAVQIYGCHSQTNQQWNVNANGTISSVQSGRCLDVWSTANGAQVQLYDCHGQTNQRFTLTPLT [TEP176]	< 25 µg
MPGDALTDPWQNGRSDDGERGDTRRLHHIVRPVDLGGLSTEAEGHPLVLGFASDAGVRRNRGRPGAAEGPAAIRRMLSNLAAHELQTLLDAGDITCEGEALEAAQQACALALAKALSLGAFPVLLGGGHEIAVASFMGLRRYLDDQGDAGKVLVLNIDAHLDLRTSRPPSSGTPFDEIARYCEAHGHAWRYACIGVSKPSNTAALFARADEIGQAPTATNIYGNGSFSVASSSISPLVSGFGGGVVYYPTAPGLYPVVAVSPGFTATWSSISWIGPRLASWGFVVVGIETNTLLDQPSSRGQQLLAALNWAVSSSAPSAVRSRADGTRRGVAGHSMGGGGSLEALAMDTTGNVKAAVPIAPWNTDKTWNNVNEPVLIVGGQWDTVAPVATHSIPFYNTLAGPKAYVELNNATHFFPQFDDAMTSRALVAWFKRWLNNDTRFTPFTCGFSGLSISDFRSNAC [TEP180]	< 25 µg
MPRDGERKQKPEGARVRAYRAGPGSPPRPPRPVRLALLAVAFVTAAVAALFAVQPASAQPSAAAVTPNSTQRGPDPTIQSIEASRGTFATAQSSVAPGNGFNGGVIYYPTDTSQGTWGALAIVPGYTAKCANEEAWMGPWLASFGFVVICIETNSTTDFDVARGQELLAALNWLTTASPVRNEIDPNRLAVLGHSAGGAGAIEAAEQRPSLRAMIGLAPGFPGQGLSMLTDRVPTLVVGGQNDTVVTPSYLSGLYATMPASTQSAFAQIAGADHVYYTHANNVEMKLIIPWLKIFVDGDTRYEQFLCPTLPDPSTISIYQPKCPYVPPGGGSPSPSASASASASASASASASASASASASASASSSPSASASASASSSPSGVPAGGCAAVYQAVGSWPGGYQAQVTVTAGGAPITGWSVRWNLSSGQSISSLWNGSYTVSGSSVTVANASYNGTLAAGASTTFGFTANGAPSTPTLTCTGK [ESM145]	< 25 µg
MQVARDGSAFQSPPETSGGIRSWRPTGRLWQRGVAAVAAAATLGALTIALTAVQPAAGAENPYQRGPDPTPASVSANRGTFATAQVSVPAGNGFGGGVIYYPTDTSQGKFGAIAIVPGYTATWAAEGAWMGPWLASFGFVVIGIDTNTRNDWDNARGQQLLAALDYLTQRSSVRDRVDATRTAVMGHSMGGGGAAYASLQRPSLKTSIGLAPASFSQNLTTTKVPTMLLSGQNDTTVSPASVLSLYNGIPAGVEKAYLELSNVGHLFPTSNNPTMMRNIIPWFKIFIDSDTRYTQFLCPLSNTTGIRSYQSTCPLVPSTPPTTTTTTTTTSTTTTTDTTTTTTDTTTTTTDSTTSTTTTTPGSGPSCTAAYTVVNQWGGGFQAEVRVAAGSTPISGWTVTWAWANGQTVTQQWSATITSSGPNVTAVNVGYNGNLGAGAATTFGFIASVNGANTPPTLACAAR [ESM022]	< 25 µg
MRDGPKFGTATVYYPENAQAPYASLLIVTGFVHPESAMKAWGPFLASHGIVTLTIGTNKLKDDPFKRRDALLDAVRSLKAEHLRKDSPLWHKLALDRIGVAGWSMGGGGAQLAAAADPSLRAVIGFCPWLPKANFEHPVPSLIIAGTLDSIANVFLNARAHYAGISETTPKLIIEIPYGGHWIANDPANANGAIGQIGLSWLKVYLEGDTRYRQFLLTPPISGGYFRHNLE [TEP077]	< 25 µg
MREHEDAMSGGRMPSGARPPRLIGLAVAAIAAVVTMIAAMLAVGPVSAQPAPTAVTPHSTQRGPDPTLAMIEASRGPFATAQQGVAPGNGFNGGEIYYPTDTSQGTWGALVIIPGYTARCVNQPAPEEAWMGPWLSSFGFVVLCMETNSPNDFDTARGQEALAALNWLTTASPVRGEVDPNRLSVMGHSMGGGGVVYAVEHQPSLRAGIGLAPFSPSQNMAGDKVPTLILGGQNDSTVTPSYLSGLYATMPAATQSAFAQIAGAGHGFYTSPNNVMMKLAIPWLKVFVDSDNRYEQFLCPTLPDPSQISIYRSKCPYVPPGGGPTSTTTTPPPPAGACQAVYQPQNSWPGGFQGLVTVTAGSSPVSGWTVTWALSGGQAITQLWSGNLTTSGSAVTVKNASYNGSLAAGASATFGFTATGAASTPTLTCTSP [ESM146]	< 25 µg
MRRSLPPSAEAGTAVGGAGPGRPARPVLPLAAVALTLVAAVTAALLAIRPATTDAKSSQRGPDPTLAGVAAATGPFTTAQVSVPPGDGFNGGTIYYPADTSRGTWAAVAISPGYTALFADEEAWMGPRLASFGFVVIGIETDSRTDYDSQRGTQLLAALDYLTTQSPVRNRVDPRRLGVIGHSMGGGGVVYAAENRPSLKAAVALAPYSPTQDMSTDTVPTMVIDGQNDTVVTPAAVDALYATLPASTRSAFMQIDGADHAYYTHPNPVEMRVLIPWLKIFLDNDTRYTRFLCPSPADPSGVSSYHSRCP [TEP071]	< 25 µg
MRSDCSPPWRWWPGAALAPAANAAAPAHPVRLAANPYERGPAPTEASITAEKGPFAIERIDVPAGSGPGFNKGTIYAPTDLSQGTFGAIAVSPGFVSPQAWIDWYGPRLATQGFVVMTLETNSLFDVPAARGEQLLAALDYMTGGSRVKDRIDASRLAVMGHSMGGGGTLEAADDRPALQAAVPLAPWNTNYDWKNVRVPTMIMGADNDAIAPADSMAESYYDNLTSVPEKAYLELKNAGHMTFNSPNTTIAKYTIAWMKRFVDDDARYERFLCPEPAPGATIAQYEGTCPTG [TEP141]	< 25 µg
MRSDMTPEPEGTVAKAGWARSQPRPATRAVMAVAAVLALLAGLLAIGQASARSAPSAASPATTQRGPDPTVGMIEATRGPFATAQVAMPTGHGFGGGMIYYPTDTSQGTWGVLAIVPGYSALFADEEAWMGPWLSSFGFVVVGVETNTRTDSDSQRAADLLAALDYLTTQSPVRTQVDPARMAVLGHSAGGAGAIEAAEQRPSLRALIGLAPGFPGQGLSMAADTVPALIIGGQNDGTVTPSYLSSLYGTLPASTQSAFAQIAGADHVYYTHPNNVEMKLIIPWLKVFVDSDTRYTQFLCPSLPDPSTISAYQPKCPYIPPGGSSSPSSSSSSSSAPPPNSAPLHAVGAAKCLDVPNSSTTAGTQLQIYTCSNGANQLITHTGSNQLTVYSSTMCLDANNKGTTNGTKVIIWPCNGQSNQQWNLNPNGTITSAASGLCLDVTGASTANGALVQLWTCNGGSNQQWHLG [TEP169]	< 25 µg
MRSSVTQVPACKGAETSEARPRTGSRPVGLRAVVVAVVAGLIAALVSAQPVSARPAPARPGAAQDNPYERGPDPTVGSVAAQRGTFATAEMNVSPGNGFNGGKIYYPTDTSQGTWGAVAAVPGFTARWAAEGAWMGHWLASFGFVVIGIDTNSPNDYDTARGTQLLAALDYLTQKSPVRDRVDPDRLGVIGHSMGGGGAISAAVRRPSLKAAVPLAPFSPSQDLSTLRVPTMIMGARDDGTVTPSYLDGLYARTPAATQSAFIELTSGGHGFPTWGNSHVTRRMIPWLKIFIDNDTRYTQFLCPSPADRSNISRWQTKCPYVPPGGTTPPPSGGQVVGAGSARCLDVPSQTNGTQVRLWDCLDRAGQKWTRTEAAELRVHGGKCLDAEASGTSPGTRVVIWDCHGGQNQRWNIGTNGTITSTRSGLCLDAYNSGTANGTQVVLWNCNGGANQRWTFR [DP042]	< 25 µg
MRSTSTTPTASSVSGAGAFAISSATVGGGNGFGSATIYFPTDTSQGTFGGLAVSPGFTETQSALRWWAQRLATHGFVVINISTNSTFDNPSSRATQLQNALNYLVNTSSVRTRVDRTRLGVSGHSMGGGGTLEAARNNTALQAAIPLMPWDQTKSFPGILTPTMIVAGQNDTVARPSSHAIPFYNSIPDSSEKVYLELAGAGHNASNSTNPTISLFGVSWAKRYIDNGTRYEQFICPGGGSGISSYRQT [ESM152]	< 25 µg
MSATRGTFATAQLSVPAGNGFGGGVIYYPTDTSQGTFGGVAIVPGYSALFANEEAWMGPWLASFGFVVIGIETNSRTDGADARATQLLAALDYLTQRSSVRDRVDSSRLSVVGHSAGGAGVILATGQRPSLKAAVGLAPGSPTGNLSLANDRVPMMFISGQRDTTVTQSYLNGLYTTLPASTPSAWVEITGVDHLFATRANTTEMRTLIPWLKIFVDNDTRYTQFLCPLMDSSNISMYRNKCPYVPPGGPSPSPSPSPSPSPSPSPSPSPSPSPSPSPSPSPSPSPSPSPSAGACTASYRTTNSWPGGHQGEVTVTAGGSAISGWTVRWTLGSGQTVSQVWNGTLSVSGSTVTVTNASYNGSLPASGSTTFGFLGTGTASAPSLTCTSRP [ESM002]	< 25 µg
MSGFGGGTIYYPSGTTGTMAAIVVIPGYVSSQSSIEWWGPRLASNGFVVMTIDTNATTDQPPARARQINAALDYLIAQNRASGSPVNGMIDTSRLGVVGWSMGGGGTLRVASEGRIKAAIPLAPWDTTTFRNVKAPTLIFACESDTIAPVRNHASPFYNQVPTSIPKAFVQLNRGNHYCANGGNAFNADLSRLGVSWMKRFLDNDRRFSQFLCGPNHTSDRDISEYRGNCPY [TEP104]	< 25 µg
